Laboratory results: publication PMC4973297, “Crystal structure of the PAS domain of the hEAG potassium channel” (Acta Crystallographica. Section F, Structural Biology …, 2016)

Biological target: the molecule itself
Assay: SEC; HiLoad 26/60 Superdex 200, 20 mM Tris-HCl pH 7.5, 200 mM NaCl, 5 mM DTT; last step of the purification

B1: N-PAS domain of the human EAG channel (residues 1-146) (domain or fragment, UniProt O95259 1-146, looked up)
chain: MTMAGGRRGLVAPQNTFLENIVRRSNDTNFVLGNAQIVDWPIVYSNDGFCKLSGYHRAEVMQKSSTCSFMYGELTDKDTIEKVRQTFENYEMNSFEILMYKKNRTPVWFFVKIAPIRNEQDKVVLFLCTFSDITAFKQPIEDDSCK
notes: human ether-a-go-go potassium channel (hEAG), N-terminal residues 1-146 holding the PAS domain; amplified from a human cDNA library; calculated mass 16 933.16 Da; The crystal has six molecules per asymmetric unit; Only about residues 27/28 to 135/137 are built in the model; Residues left by PreScission cleavage are not described; also called hEAG N-PAS domain; PAS domain of hEAG; not shown: GST, …
  stoichiometry N: 2
